Earlier results, collected in paper PMC11409674, “Raffinocyclicin is a novel plasmid-encoded circular bacteriocin produced by Lactococcus raffinolactis with broad-spectrum activity against many gram-positive food pathogens” (Applied and environmental microbiology, 2024).

Key:
[1] = test system: L. lactis; design: method as in 7 sources, ref 29 = [29]; PMID 18552180; doi:10.1128/AEM.00817-08; 29 Martin-Visscher LA van Belkum MJ Garneau-Tsodikova S Whittal RM Zheng J McMullen LM Vederas JC Isolation and characterization of carnocyclin A, a novel circular bacteriocin produced by Carnobacteri ||| ref 30 = [30]; PMID 29177092; doi:10.1099/mgen.0.000134; 30 van Heel AJ Montalban-Lopez M Oliveau Q Kuipers OP Genome-guided identification of novel head-to-tail cyclized antimicrobial peptides, exemplified by the discovery of pumilarin Microb Genom 2017 3 ||| ref 31 = [31]; PMID 29030449; doi:10.1128/AEM.01801-17; 31 Borrero J Kelly E O’Connor PM Kelleher P Scully C Cotter PD Mahony J van Sinderen D Plantaricyclin a, a novel circular bacteriocin produced by Lactobacillus plantarum NI326: purification, character ||| ref 32 = [32]; PMID 17464077; doi:10.1099/mic.0.2006/005967-0; 32 Wirawan RE Swanson KM Kleffmann T Jack RW Tagg JR Uberolysin: a novel cyclic bacteriocin produced by Streptococcus uberis Microbiology 2007 153 1619 1630 10.1099/mic.0.2006/005967-0 17464077 ||| ref 27 = [27]; PMID 21057028; doi:10.1128/AEM.01173-10; 27 Borrero J Brede DA Skaugen M Diep DB Herranz C Nes IF Cintas LM Hernández PE Characterization of garvicin ML, a novel circular bacteriocin produced by Lactococcus garvieae DCC43, isolated from mall ||| ...; settings: five strains of L. lactis; cited from earlier work
[2] = test system: proteases; design: method as in 4 sources, ref 33 = [33]; PMID 21948835; doi:10.1128/AEM.06348-11; 33 Masuda Y Ono H Kitagawa H Ito H Mu F Sawa N Zendo T Sonomoto K Identification and characterization of leucocyclicin Q, a novel cyclic bacteriocin produced by Leuconostoc mesenteroides TK41401 Appl ||| ref 27 = [27]; PMID 21057028; doi:10.1128/AEM.01173-10; 27 Borrero J Brede DA Skaugen M Diep DB Herranz C Nes IF Cintas LM Hernández PE Characterization of garvicin ML, a novel circular bacteriocin produced by Lactococcus garvieae DCC43, isolated from mall ||| ref 30 = [30]; PMID 29177092; doi:10.1099/mgen.0.000134; 30 van Heel AJ Montalban-Lopez M Oliveau Q Kuipers OP Genome-guided identification of novel head-to-tail cyclized antimicrobial peptides, exemplified by the discovery of pumilarin Microb Genom 2017 3 ||| ref 29 = [29]; PMID 18552180; doi:10.1128/AEM.00817-08; 29 Martin-Visscher LA van Belkum MJ Garneau-Tsodikova S Whittal RM Zheng J McMullen LM Vederas JC Isolation and characterization of carnocyclin A, a novel circular bacteriocin produced by Carnobacteri; settings: cited from earlier work

| Substance | inhibition of L. lactis strains tested [1] | sensitivity to proteolytic activity [2] |
| --- | --- | --- |
| plantaricyclin A | inhibited all five strains | – |
| pumilarin | – | low-sensitivity profile |
| garvicin ML | – | resistant |
